# Experiment: soluble on expression in E. coli; label from the status in PepcDB or PDB records
row,Sequence,soluble on expression in E. coli
1,MARLTVHTLETAPEAAKPRVEAVPKNNGFIPNLIGVLANAPEALAFYQEVGKLNAANSLTAGEVEVIRIIAVRTNQCSFCVAGHTKLATLKKLLSEQSLNAARALAAGKSDDAKLGALAAFTQAVMAKKGAVSDDELNAFLEAGYNRQQAVEVVMGVALATLCNYANNLAQTEINPKLQAYA,not soluble
2,MARPKSEDKKQALLEAATQAIAQSGIAASTAVIARNAGVAEGTLFRYFATKDELINTLYLHLKQDLCQSMIMELDRSITDAKMMTRFIWNSYISWGLNHPARHRAIRQLAVSEKLTKETEQRADDMFPELRDLCHRSVLMVFMSDEYRAFGDGLFLALAETTMDFAARDPARAGEYIALGFEAMWRALTREEQ,not soluble
3,MARSDSDKNGNGGNLGFEAELFKAADKLRGNMEPSDYKHVALGLIFLKYISDAFEAKHKALLAEDALAAEDKDEYLADNVFWVPKEARWSHLQANAKQPTIGTLIDDAMRAIEKDNASLKGVLPKDYARPALNKVMLGELIDLISGIGHLLPSPSGRGAGGEGQSFDILGRVYEYFLGQFAGAEGKRGGEFYTPRSVVRVLVEMLEPYSGRVYDPCCGSGGMFVQSEKFVQEHGGRIGDIAIYGQESNYTAWRLAKMNLAVRGIDADIRWNNEGSFHKDELRDLKADYILANPPFNISDWGGDRLREDVRWQFGVPPVGNANYAWLQHIYWHLAPNGTAGVVLANGSMSSNQSGEGEIRRAMLEADAVDCMVALPGQLFYSTQIPACLWFLARNKNPANGKTGGLRDRRGHVLFIDARKMGVLVDRTRRELSDEEIQKIARTYHAWRGEPDAGDYADVAGFCKSATLDEIRKHGHVLTPGRYVGAAEVEDDGEPFEEKMARLAAQWRQQRDEAAKLDAAIEANLKELGFWE,soluble
4,MARSRGSSRPISRSRPTQTRSASTMAAPVHPQQQQQPNAYSHPPAAGAQTRQPGMFAQMASTAAGVAVGSTIGHTLGAGITGMFSGSGSDSAPVEQQQQNMANTSGQTQTDQQLGRTCEIDARNFTRCLDENNGNFQICDYYLQQLKACQEAARQY,soluble
5,MARTVFCTRLQKEADGLDFQLYPGELGKRIFDNICKEAWAQWQTKQTMLINEKKLNMMDPEHRKLLEQEMVNFLFEGKEVHIEGYTPPAK,not soluble
6,MARYTKEDIFRLAKEENVKYIRLQFTDLLGVIKNVEIPVSQLTKALDNKMMFDGSSIEGFVRIEESDMYLYPDLDTWVIFPWTAEKGKVARLICDIYNADGTPFEGDPRNNLKRVLKEMEALGFSDFNLGPEPEFFLFKVDEKGNPTLELNDNGGYFDLAPMDLGENCRRDIVLELEEMGFEIEASHHEVAPGQHEIDFKYANAIRSCDDIQTFKLVVKTIARKHGLHATFMPKPLYGVNGSGMHCNLSLFKNGENVFFDQNGDLQLSDDARHFIAGILKHAPAFTAVANPTVNSYKRLVPGYEAPCYVAWSAQNRSPLVRIPASRGISTRVEVRSVDPAANPYLVMATLLAAGLDGIKNKLTPPAAVDRNIYVMTKEEREEAGIVDLPATLAQALVTLQSNEVISNALGDHLLEHFIEAKEIEWDIFRTQVHQWERDQYMSLY,not soluble
7,MASDYKDDDDKRRRGMEGAKLSAVRIAVREAPYRQFLGRREPSVVQFPPWSDGKSLIVDQNEFHFDHAFPATISQDEMYQALILPLVDKLLEGFQCTALAYGQTGTGKSYSMGMTPPGEILPEHLGILPRALGDIFERVTARQENNKDAIQVYASFIEIYNEKPFDLLGSTPHMPMVAARCQRCTCLPLHSQADLHHILELGTRNRRVRPTNMNSNSSRSHAIVTIHVKSKTHHSRMNIVDLAGSEGVRRTGHEGVARQEGVNINLGLLSINKVVMSMAAGHTVIPYRDSVLTTVLQASLTAQSYLTFLACISPHQCDLSETLSTLRFGTSAKAAALEHHHHHH,soluble
8,MASEASVRLGVPPGRLWIQRPGIYEDEEGRTWVTVVVRFNPSRREWARASQGSRYEPSITVHLWQMAVHTRELLSSGQMPFSQLPAVWQLYPRRKYRAADSSFWEIADHGQIDSMEQLVLTYQPERKD,not soluble
9,MASEMKFAWLLAPDTYWDEKKTFITAALESGIDHIVDTADSGRIKKLGNLTLISPDEDADIVLVGRDGEGDGTLELPETLEYSRDIEMASELSESGRQVAAYVEIRSKAHEELARRLGRVVDYLILVGEDWKIIPLENIIADLQEEDVKLIAAVADVDEARVALETLEHGTDGVLIEPADISQIKDIAALLENIESETYELKPATITRIEPIGSGDRVCVDTCSIMGIGEGMLVGSYSQGLFLVHSESLESEYVASRPFRVNAGPVQAYVMVPGGRTRYLSELETGDEVIIVDRDGRSRSAIVGRVKIEKRPLMLVEAEYEGMKVRTLLQNAETIRLVNDKGEPVSVSELGEGDRVLVYFDESARHFGMAIKETIIEKLEHHHHHH,soluble
10,MASIVFSTIGNPKGYQKVTYEIDGEKFESNVSVLALRDLLKVDKTVVILGISVADVYNCKYADYRSCKECIIQNSKNDLGISESYVVAPNVYQKFKGKPDHYFTYIYYHSLRILEKEGINEVFIDTTHGINYMGVLAKEAIQLAVSAYAAKSEKEVKVSLYNSDPVGKDVSDTVKLHEIEAIKISPLSGLKYVTYQILNKDKNFFNKIFSDSVNAIPRFATALDNGLFIYLSEKDSSLHLKRLEDDLSKDPLLTPSENEINVVYKDMKYALSHALFYVISRFSGNVDLDTLRHYAETYADKVTRAIIENEVDKIEKYQMGSERKLLGEYMKVEGKGFDKRILYAHGGLPYAGTYVYKEKDKVYVTYGDKIDEIERQI,soluble
11,MASKAVILAGGLGTRLSEETIVKPKPMVEIGGKPILWHIMKMYSVHGIKDFIICCGYKGYVIKEYFANYFLHMSDVTFHMAENRMEVHHKRVEPWNVTLVDTGDSSMTGGRLKRVAEYVKDDEAFLFTYGDGVADLDIKATIDFHKAHGKKATLTATFPPGRFGALDIQAGQVRSFQEKPKGDGAMINGGFFVLNPSVIDLIDNDATTWEQEPLMTLAQQGELMAFEHPGFWQPMDTLRDKVYLEGLWEKGKAPWKTWE,soluble
12,MASKKISLTKPKYQQIAVDVAEKIAEGKLHVGDKIHARSTLANQYQVSPETARKAIIVLVDLEIVKAKHGSGFYVASKEKAQDFVTQYQDVQTIAEIKEELLDSVAKQKEELTHFSSILDTLVEQTKRFDSFNPMNPYSLVLTEEAAYLEATISEMNFWQNTSATIIAIKHKEELLVSPGPYAKISLNDTLYFVGHDESTLQRVQNFFYP,not soluble
13,MASKVYDPEQRKRMITGPQWWARCKQMNVLDSFINYYDSEKHAENAVIFLHGNATSSYLWRHVVPHIEPVARCIIPDLIGMGKSGKSGNGSYRLLDHYKYLTAWFELLNLPKKIIFVGHDWGAALAFHYAYEHQDRIKAIVHMESVVDVIESWDEWPDIEEDIALIKSEEGEKMVLENNFFVETVLPSKIMRKLEPEEFAAYLEPFKEKGEVRRPTLSWPREIPLVKGGKPDVVQIVRNYNAYLRASDDLPKLFIESDPGFFSNAIVEGAKKFPNTEFVKVKGLHFLQEDAPDEMGKYIKSFVERVLKNEQVDHHHHHH,soluble
14,MASLATSISGSFRILVKSSSTRNGFPVISDQNPSFVLFANKRRHISRTAIFHRSAISGSSQGEKISPLASGVSSGLYSAQTFDLTPQNVDLVLEDVRPFLISDGGNVDVVSVEDGVVSLKLQGACTSCPSSSTTMTMGIERVLKEKFGDALKDIRQVFDEEVKQITVEVSEASF,not soluble
15,MASLIQVRDLLALRGRMEATQISHTLHAPQPMIDAMLNQLEIMGKAVRIPEEPDGCLSGSCKSCPEGKACLREWWALR,not soluble
16,MASNDPGNEVSSYSPTSPSYVKFFTQSNLEKLPKYKEKKAASAKQTAPNNSNGGSEEEITCALDYLIPPPMPKNQQYRAFGSIW,soluble
17,MASPLRFDGRVVLVTGAGGGLGRAYALAFAERGALVVVNDLGGDFKGVGKGSSAADKVVEEIRRRGGKAVANYDSVEAGEKLVKTALDTFGRIDVVVNNAGILRDRSFSRISDEDWDIIQRVHLRGSFQVTRAAWDHMKKQNYGRIIMTASASGIYGNFGQANYSAAKLGLLGLANTLVIEGRKNNIHCNTIAPNAGSRMTETVMPEDLVEALKPEYVAPLVLWLCHESCEENGGLFEVGAGWIGKLRWERTLGAIVRKRNQPMTPEAVRDNWVKICDFSNASKPKSIQESTGGIIEVLHKIDSEGISQNHTGQVASAD,soluble
18,MASQLTDAFARKFYYLRLSITDVCNFRCTYCLPDGYKPSGVTNKGFLTVDEIRRVTRAFARLGTEKVRLTGGEPSLRRDFTDIIAAVRENDAIRQIAVTTNGYRLERDVASWRDAGLTGINVSVDSLDARQFHAITGQDKFNQVMAGIDAAFEAGFEKVKVNTVLMRDVNHHQLDTFLNWIQHRPIQLRFIELMETGEGSELFRKHHISGQVLRDELLRRGWIHQLRQRSDGPAQVFCHPDYAGEIGLIMPYEKDFCATCNRLRVSSIGKLHLCLFGEGGVNLRDLLEDDTQQQALEARISAALREKKQTHFLHQNNTGITQNLSYIGGLEHHHHHH,not soluble
19,MASQNRDPAATSVAAARKGAEPSGGAARGPVGKRLQQELMTLMMSGDKGISAFPESDNLFKWVGTIHGAAGTVYEDLRYKLSLEFPSGYPYNAPTVKFLTPCYHPNVDTQGNISLDILKEKWSALYDVRTILLSIQSLLGEPNIDSPLNTHAAELWKNPTAFKKYLQETYSKQVTSQEP,soluble
20,MASSSSAALRPFGTARLTPGRQTGRQTQQQISAPEPMIAIALSDMEYLMRSARSSRSSGRSERQPGCTCCCHIAAGVTVIPRVARFSIEGGLSTHTLMNHSDNRIAVKITCSDNNMYRVTPVYATVEPGQSLPLHIARITSDLIKRDRLCVNILEADGNKEAREIFKKNANTRAPASINMALEATNDNQNHHHQE,not soluble
21,MASTNCVSIQKRDILRGSGSTTWFDVLLEKGSCVTIVADDRPTVDIWLDRITHESPIAGREYCMRVDISGLKIATRCPTLGEAYLSEEHTEDYVCKRGFSDRGWGNGCGLFGKGSIVGCVKTTCKSSGIAKSYSYDIPKVKYVISTEVHKGELISGNVSASVVSATFSSEAEKHSMELEDYGRLEFTCRVVSGSNLGSVRILEIDNHYFNVHEDWLLDLPLPWRIPDGHWHDLGELIAFKEPHAVKMVAQAYGDQRASLLKSLVKAEEIAKSGNSYYLPGGHVDCRVSLVNLKLKGTTYPYCGDSFVWKRRPTATHHGTVAMEVTYQGTDVPCKVSVIVEKDGQNGGNAGSLITSNPIITAQGSSVFLELEVPLGFSTIKVGAAKQQWRQDGSSIGKALETHHHHHH,not soluble
22,MASWSHPQFEKGASLDSPTFGCTDSPVRRERGQKAVFCGLTSIVWLHRKMQDAFFLVVGSRTCAHLLQAAAGVMIFAEPRFGTAVLEEQDLAGLADAHKELDREVAKLLERRPDIRQLFLVGSCPSEVLKLDLDRAAERLSGLHAPHVRVYSYTGSGLDTTFTQGEDTCLAAMVPTLDTTEAAELIVVGALPDVVEDQCLSLLTQLGVGPVRMLPARRSDIEPAVGPNTRFILAQPFLGETTGALERRGAKRIAAPFPFGEEGTTLWLKAVADAYGVSAEKFEAVTAAPRARAKKAIAAHLETLTGKSLFMFPDSQLEIPLARFLARECGMKTTEIATPFLHKAIMAPDLALLPSNTALTEGQDLEAQLDRHEAINPDLTVCGLGLANPLEAKGHATKWAIELVFTPVHFYEQAGDLAGLFSRPLRRRALLNGGAA,soluble
